Test results published in US20160289747, “DETECTION OF NUCLEIC ACIDS BY STRAND INVASION BASED AMPLIFICATION” (ORION DIAGNOSTICA OY, published 2016).

T1: gp32 single-stranded DNA binding protein (Enterobacteria phage T4, UniProt P03695 P03695:1-301)
T1 sequence: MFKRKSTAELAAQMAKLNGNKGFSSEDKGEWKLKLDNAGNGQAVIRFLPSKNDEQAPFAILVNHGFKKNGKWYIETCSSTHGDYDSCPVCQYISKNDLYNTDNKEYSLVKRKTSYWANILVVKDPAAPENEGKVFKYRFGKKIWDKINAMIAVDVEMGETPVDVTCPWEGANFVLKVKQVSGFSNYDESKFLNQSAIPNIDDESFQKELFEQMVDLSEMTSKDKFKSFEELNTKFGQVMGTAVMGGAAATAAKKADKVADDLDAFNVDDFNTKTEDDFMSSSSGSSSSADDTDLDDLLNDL


What was measured:
[1] = molecular target: T1, gp32 single-stranded DNA binding protein; experiment: little or no fluorescence increase; settings: tags: New England Biolabs; label: fluorophore and quencher
Experimental: (§1) The effect of the single-strand binding protein, bacteriophage T4 gp32 (New England Biolabs), on signal from the same oligonucleotide probes used with UvsX was also elucidated. Similar concentrations of oligonucleotide probes to those used with UvsX were incubated in the presence or absence of 0.25 mg/ml of gp32 and 200 nM complementary template ((SEQ ID NO: 34 for probes with SEQ ID NO 1-8 or SEQ ID NO: 44 for probes with SEQ ID NO: 9 or 10) in a buffer containing 20 mM Tris-acetate pH 7.9, 50 mM potassium acetate, 10 mM Magnesium Acetate and 1 mM DTT.

UvsX recombinase [2] = molecular target: T2, UvsX recombinase (Enterobacteria phage T4, UniProt P04529 P04529:1-391); experiment: probe remained quenched; Mg, ATP, 40 C; settings: label: fluorophore and quencher
Experimental: (§2) The oligonucleotide probes were incubated in the presence or absence of 200 nM complementary template (SEQ ID NO: 34 for probes with SEQ ID NO 1-8, or SEQ ID NO: 44 for probes with SEQ ID NO 9 or 10) and 5 μM UvsX in buffer containing 20 mM Tris-acetate pH 8.0, 10 mM Magnesium acetate, 2 mM ATP, 60 mM Tris-Phosphocreatine and 0.025 U/μl Creatine Kinase. Fluorescence was measured after 20 minutes incubation at 40 degrees centigrade.

RecA [3] = molecular target: T3, RecA (Escherichia coli, UniProt P0A7G6 P0A7G6:2-353); experiment: no significant fluorescence increase; Mg, ATP; settings: tags: New England Biolabs; label: fluorophore and quencher
Experimental: (§3) The effect of Escherichia coli recombinase, RecA (New England Biolabs) on signal from oligonucleotide probes was also elucidated (FIG. 1d). Similar concentrations of oligonucleotide probes to those used in FIGS. 1a and 1b were incubated in the presence or absence of 100 μg/ml of RecA in a buffer containing 70 mM Tris-HCl pH 7.6.10 mM MgCl₂, 5 mM DTT and 10 mM ATP. […] However, the increase was not as high as that seen with T4 UvsX.

[4] = molecular target: T1, gp32 single-stranded DNA binding protein; experiment: fluorescence dequenching; 0.25 mg/ml gp32, Mg, K acetate; settings: tags: New England Biolabs; label: fluorophore and quencher
Experimental: as §1

RecA [5] = molecular target: T3, RecA; experiment: fluorescence increase, less than UvsX; Mg, ATP; settings: tags: New England Biolabs; label: fluorophore and quencher
Experimental: as §3

UvsX recombinase [6] = molecular target: T2, UvsX recombinase; experiment: fluorescence dequenching; 5 uM UvsX, Mg, ATP, 40 C; settings: label: fluorophore and quencher
Experimental: as §2

T3 sequence (P0A7G6 2-353, one chain of several): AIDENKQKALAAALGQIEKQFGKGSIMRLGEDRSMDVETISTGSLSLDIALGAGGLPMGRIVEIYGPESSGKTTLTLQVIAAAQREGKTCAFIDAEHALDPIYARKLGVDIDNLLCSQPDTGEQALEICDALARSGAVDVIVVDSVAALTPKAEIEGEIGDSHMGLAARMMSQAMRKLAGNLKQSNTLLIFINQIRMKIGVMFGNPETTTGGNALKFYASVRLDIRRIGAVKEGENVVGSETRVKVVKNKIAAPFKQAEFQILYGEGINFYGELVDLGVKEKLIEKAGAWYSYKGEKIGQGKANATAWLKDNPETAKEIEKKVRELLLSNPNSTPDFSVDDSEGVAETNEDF
T2 sequence (P04529 whole entry, one chain of several): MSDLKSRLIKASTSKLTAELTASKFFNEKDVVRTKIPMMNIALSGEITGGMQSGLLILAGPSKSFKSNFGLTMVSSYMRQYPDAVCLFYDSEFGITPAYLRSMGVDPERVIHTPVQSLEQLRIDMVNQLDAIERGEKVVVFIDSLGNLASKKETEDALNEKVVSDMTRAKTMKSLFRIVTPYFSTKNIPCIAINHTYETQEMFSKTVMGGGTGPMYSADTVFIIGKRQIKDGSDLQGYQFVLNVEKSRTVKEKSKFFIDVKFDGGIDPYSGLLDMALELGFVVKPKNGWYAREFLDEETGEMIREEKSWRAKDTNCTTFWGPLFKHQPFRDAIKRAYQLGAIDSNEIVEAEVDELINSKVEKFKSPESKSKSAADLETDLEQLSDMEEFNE

Binder	binding result [1]	binding result (UvsX recombinase [2])	binding result (RecA [3])	binding result [4]	binding result (RecA [5])	binding result (UvsX recombinase [6])
AGCCGAUGACUAAUGC (ssRNA) [RNA 16]	no binding	no binding				
AGCCGAUGACUAAUGC (ssRNA, 2'-OMe) [2'-O-methyl RNA 16]	no binding	no binding				
ACGAAAGCCGAUGACUAAUGC (ssRNA) [RNA 21]	no binding	no binding	no binding			
ACGAAAGCCGAUGACUAAUGC (ssRNA, 2'-OMe) [2'-O-methyl RNA 21]	no binding	no binding	no binding			
AGCCGAUGACUAAUGC (ssRNA, 2'-F) [2'-fluoro RNA 16]	no binding	no binding				
ACGAAAGCCGAUGACUAAUGC (ssRNA, 2'-F) [2'-fluoro RNA 21]	no binding	no binding	no binding			
AGUUGAUGUGUA (XNA, LNA) [LNA 12]	no binding	no binding	no binding			
ACGAAAGCCGATGACTAATGC (ssDNA) [DNA 21]				binds	binds	binds
AGCCGATGACTAATGC (ssDNA) [DNA 16]				binds		binds
